Laboratory results from the supplement of paper PMC7877785.
± gives the uncertainty stated by the source.

Assay: self-splicing fitness, log relative to wild type (ln ratio); higher = more splicing; Tetrahymena group I intron in knt gene, E. coli kanamycin selection, DiMSum; sequences stand for … in CUCUCU…GGAGGGAAAAGUUAUCAGGCAUGCACCUGGUAGCUAGUCUUUAAACCAAUAGAUUGCAUCGGUUUAAAAGGCAAGACCGUCAAAUUGCGGGAAAGGGGUCAACAGCCGUUCAGUACCAAGUCUCAGGGGAAACUUUGAGAUGGCCUUGCAAAGGGUAUGGUAAUAAGCUGACGGACAUGGUCCUAACCACGCAGCCAAGUCCUAAGUCAACAGAUCUUCUGUUGAUAUGGAUGCAGUUCACAGACUAAAUGUCGGUCGGGGAAGAUGUAUUCUUCUCAUAAGAUAUAGUCGGACCUCUCCUUAAUGGGAGCUAGCGGAUGAAGUGAUGCAACACUGGAGCCGCUGGGAACUAAUUUGUAUGCGAAAGUAUAUUGAUUAGUUUUGGAGUACUCGUGGUCG
Summary of the method: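 The eight P1ex-region nucleotides of an intron in the knt kanamycin-resistance gene on pET-22b(+) were all randomised and the library put into E. coli BL21(DE3). Six replicate transformations were grown overnight at 37°C or 30°C on LB agar with or without 25 μg/mL kanamycin, together with 100 μg/mL carbenicillin, 50 μM IPTG and 0.2% rhamnose. Colonies were pooled and amplicon-sequenced on an Illumina HiSeq 2500. Fitness from DiMSum is the error-weighted combination of wild-type-normalised replicate fold changes, kanamycin over none.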

Row | Sequence | self-splicing fitness (ln) (30 °C) | self-splicing fitness (ln) (37 °C)
1 | GGGAAGCAAUAUUACGGUCG | 0.00025 ± 0.1 | -0.403 ± 0.14
2 | UAUUAGCAAUAUUACGACUG | -0.225 ± 0.16 | 0.804 ± 0.21
3 | GUUAAGCAAUAUUACGUUUA | -2.74 ± 0.15 | -1.61 ± 0.11
4 | ACUGAGCAAUAUUACGUGCC | -2.31 ± 0.23 | –
5 | AGUUAGCAAUAUUACGUCAA | -3.02 ± 0.26 | -0.718 ± 0.13
6 | GGGGAGCAAUAUUACGCACA | -2.37 ± 0.43 | -0.994 ± 0.34
7 | AUACAGCAAUAUUACGACGG | -3.2 ± 0.15 | -0.835 ± 0.13
8 | UUGGAGCAAUAUUACGAGCG | -2.64 ± 0.3 | -0.508 ± 0.32
9 | UAUGAGCAAUAUUACGAGGA | – | -1.91 ± 0.27
10 | GAUAAGCAAUAUUACGGUGU | -2.61 ± 0.12 | -1.59 ± 0.11
11 | GAGGAGCAAUAUUACGGGCU | -2.72 ± 0.48 | -1.83 ± 0.29
12 | CGAGAGCAAUAUUACGAGGG | -4.22 ± 0.31 | -3.16 ± 0.27
13 | GACGAGCAAUAUUACGCGAA | -2.91 ± 0.31 | -1.16 ± 0.21
14 | GUCCAGCAAUAUUACGCAGU | -0.463 ± 0.046 | -0.161 ± 0.058
15 | UAAUAGCAAUAUUACGAAAG | -1.92 ± 0.19 | -2.03 ± 0.31
16 | GAUUAGCAAUAUUACGGACC | -0.347 ± 0.18 | -0.379 ± 0.16
17 | CGGCAGCAAUAUUACGUUAA | -2.44 ± 0.16 | -1.1 ± 0.11
18 | AGCAAGCAAUAUUACGGUCA | -0.46 ± 0.07 | 0.00074 ± 0.084
19 | CCUUAGCAAUAUUACGCGUG | -2.33 ± 0.12 | -2.61 ± 0.12

Row | Sequence | self-splicing fitness (ln) (30 °C) | self-splicing fitness (ln) (37 °C)
20 | GUUUAGCAAUAUUACGGUAC | -1.22 ± 0.12 | -2.01 ± 0.15
21 | UACAAGCAAUAUUACGGCUU | -3.99 ± 0.16 | -2.37 ± 0.15
22 | AACCAGCAAUAUUACGGAAC | -2.13 ± 0.091 | -1.04 ± 0.088
23 | UAGUAGCAAUAUUACGCGAU | -2.23 ± 0.42 | -0.904 ± 0.3
24 | AGAAAGCAAUAUUACGUUUC | -3.82 ± 0.15 | -2.09 ± 0.1
25 | AUCGAGCAAUAUUACGGCGA | -1.24 ± 0.18 | -0.629 ± 0.17
26 | UGCAAGCAAUAUUACGACUG | 0.127 ± 0.065 | 0.37 ± 0.087
27 | UCCUAGCAAUAUUACGUUCC | -2.61 ± 0.27 | -1.72 ± 0.4
28 | GGCCAGCAAUAUUACGCUUA | -0.822 ± 0.15 | 0.139 ± 0.17
29 | AGGAAGCAAUAUUACGCAAA | -1.79 ± 0.14 | -1.23 ± 0.14
30 | GUCCAGCAAUAUUACGGGUA | -0.764 ± 0.061 | 0.14 ± 0.066
31 | GGGCAGCAAUAUUACGAGCU | -2.69 ± 0.22 | 0.481 ± 0.13
32 | AAAUAGCAAUAUUACGAACG | -1.42 ± 0.14 | -0.384 ± 0.16
33 | CCGAAGCAAUAUUACGGGGG | -4.9 ± 0.46 | -2.26 ± 0.33
34 | CUAAAGCAAUAUUACGUUCC | -3.89 ± 0.4 | -2.25 ± 0.41
35 | CCGAAGCAAUAUUACGCGGA | -3.61 ± 0.43 | -1.78 ± 0.19
36 | GAACAGCAAUAUUACGUGCG | -0.551 ± 0.065 | -0.41 ± 0.074
37 | CUUCAGCAAUAUUACGGUUG | -1.28 ± 0.071 | -0.455 ± 0.088
38 | ACAAAGCAAUAUUACGUGAU | -1.51 ± 0.063 | -1.09 ± 0.086
